Series [1] concerns RFTS-containing DNMT1 wild-type (human). Kind of series: fluorescence polarization. To be noted: 5-methylcytosine on one strand (hemimethylated), 100 nM DNA, 28 °C, triplicate, hyperbolic fit, buffer, salt and pH not given (as in ref [25]). For orientation: Fluorescence polarisation rises when a labelled molecule tumbles more slowly, as on binding a larger partner.
In series [2] the test system is RFTS-containing DNMT1 A554V (human). In words: fluorescence polarization. Conditions: 5-methylcytosine on one strand (hemimethylated), 100 nM DNA, 28 °C, triplicate, hyperbolic fit, buffer, salt and pH not given (as in ref [25]).

For 18 bp hemimethylated duplex DNA, the figures for the Kd in series [1] and in series [2] were 4.6 µM and 550 nM, respectively.

What is called Kd is the equilibrium constant for the complex coming apart.

Source of the values: paper PMC10470860.
